Tests used:
[1] = target: C1 (a first component of complement) of human serum (human) (UniProt P09871)
[2] = target: C1 (a first component of complement) of human serum (human) (UniProt P09871); remark: listed apart in the source

Q: Which complement-mediated lysis of CHO cells (antibody against CHO cells, then 40% human serum) [1] does the source give for “FLAG-C1-INH-GPI (C1-INH-GPI with a FLAG epitope tag added to the C terminal of the signal peptide)” here?
A: Its complement-mediated lysis of CHO cells (antibody against CHO cells, then 40% human serum) is 20%.

Q: And the complement-mediated lysis of swine vascular endothelial cells (SEC) by 20% and 40% human serum [2]?
A: Its complement-mediated lysis of swine vascular endothelial cells (SEC) by 20% and 40% human serum is 20%.

— patent US6500929B1
